How the values were obtained:
Format in all cases: biochemical
[1] = carboxylate reductase enzyme activity assay (pimelate to pimelate semialdehyde), NADPH consumption at 340 nm; settings: purified enzyme enhanced by gene product of sfp; 2 mM pimelate, 1 mM ATP, 1 mM NADPH, pH 7.5, room temperature, 20 min; FIG. 8
Method: A nucleotide sequence encoding a HIS-tag was added to the nucleic acid sequences from Segniliparus rugosus and Segniliparus rotundus that encode the carboxylate reductases of SEQ ID NOs: 4 (EFV11917.1) and 6 (ADG98140.1), respectively (see FIG. 6C and FIG. 6E), such that N-terminal HIS tagged carboxylate reductases could be produced. Each of the modified genes was cloned into a pET Duet expression vector along with a sfp gene encoding a HIS-tagged phosphopantetheine transferase from Bacillus subtilis, both under the T7 promoter. Each expression vector was transformed into a BL21[DE3] E. coli host and the resulting recombinant E. coli strains were cultivated at 37° C. in a 250 mL shake flask culture containing 50 mL LB media and antibiotic selection pressure, with shaking at 230 rpm. Each culture was induced overnight at 37° C. using an auto-induction media.
The pellet from each induced shake flask culture was harvested via centrifugation. Each pellet was resuspended and lysed via sonication, and the cell debris was separated from the supernatant via centrifugation. […]
Enzyme activity assays (i.e., from pimelate to pimelate semialdehyde) were performed in triplicate in a buffer composed of a final concentration of 50 mM HEPES buffer (pH=7.5), 2 mM pimelate, 10 mM MgCl2, 1 mM ATP, and 1 mM NADPH. […] The consumption of NADPH was monitored by absorbance at 340 nm. […]

[2] = carboxylate reductase enzyme activity assay (N7-acetyl-7-aminoheptanoate to N7-acetyl-7-aminoheptanal), NADPH consumption at 340 nm; settings: purified enzyme enhanced by gene product of sfp; 2 mM N7-acetyl-7-aminoheptanoate, 1 mM ATP, 1 mM NADPH, pH 7.5, room temperature, 20 min; FIG. 10
Method: The activity of each of the N-terminal His-tagged carboxylate reductases of SEQ ID NOs: 3, 5, and 6 (see Examples 2 and 3, and FIG. 6B, FIGS. 6D-6E) for converting N7-acetyl-7-aminoheptanoate to N7-acetyl-7-aminoheptanal was assayed in triplicate in a buffer composed of a final concentration of 50 mM HEPES buffer (pH=7.5), 2 mM N7-acetyl-7-aminoheptanoate, 10 mM MgCl2, 1 mM ATP, and 1 mM NADPH. The assays were initiated by adding purified carboxylate reductase and phosphopantetheine transferase or the empty vector control to the assay buffer containing the N7-acetyl-7-aminoheptanoate then incubated at room temperature for 20 min. The consumption of NADPH was monitored by absorbance at 340 nm.

[3] = carboxylate reductase enzyme activity assay (pimelate semialdehyde to heptanedial), NADPH consumption at 340 nm; settings: purified enzyme enhanced by gene product of sfp; 2 mM pimelate semialdehyde, 1 mM ATP, 1 mM NADPH, pH 7.5, room temperature, 20 min; FIG. 11
Method: The N-terminal His-tagged carboxylate reductase of SEQ ID NO: 6 (see Example 3 and FIG. 6E) was assayed using pimelate semialdehyde as substrate. The enzyme activity assay was performed in triplicate in a buffer composed of a final concentration of 50 mM HEPES buffer (pH=7.5), 2 mM pimelate semialdehyde, 10 mM MgCl2, 1 mM ATP, and 1 mM NADPH. The enzyme activity assay reaction was initiated by adding purified carboxylate reductase and phosphopantetheine transferase or the empty vector control to the assay buffer containing the pimelate semialdehyde and then incubated at room temperature for 20 min. The consumption of NADPH was monitored by absorbance at 340 nm.

Row | Molecule | acceptance of pimelate as substrate (NADPH consumption), confirmed against the empty vector control [1] | acceptance of N7-acetyl-7-aminoheptanoate as substrate (NADPH consumption), confirmed against the empty vector control [2] | acceptance of pimelate semialdehyde as substrate (NADPH consumption), confirmed against the empty vector control [3]
1 | SEQ ID NO: 4: Segniliparus rugosus carboxylate reductase, N-terminal HIS tagged (protein, listed as Segniliparus rugosus, N-terminal His tag, Segniliparus rugosus carboxylate reductase, N-terminal HIS tagged) MGDGEERAKRFFQRIGELSATDPQFAAAAPDPAVVEAVSDPSLSFTRYLDTLMRGYAERPALAHRVGAGYETISYGELWARVGAIAAAWQADGLAPGDFVATVGFTSPDYVAVDLAAARSGLVSVPLQAGASLAQLVGILEETEPKVLAASASSLEGAVACALAAPSVQRLVVFDLRGPDASESAADERRGALADAEEQLARAGRAVVVETLADLAARGEALPEAPLFEPAEGEDPLALLIYTSGSTGAPKGAMYSQRLVSQLWGRTPVVPGMPNISLHYMPLSHSYGRAVLAGALSAGGTAHFTANSDLSTLFEDIALARPTFLALVPRVCEMLFQESQRGQDVAELRERVLGGRLLVAVCGSAPLSPEMRAFMEEVLGFPLLDGYGSTEALGVMRNGIIQRPPVIDYKLVDVPELGYRTTDKPYPRGELCIRSTSLISGYYKRPEITAEVFDAQGYYKTGDVMAEIAPDHLVYVDRSKNVLKLSQGEFVAVAKLEAAYGTSPYVKQIFVYGNSERSFLLAVVVPNAEVLGARDQEEAKPLIAASLQKIAKEAGLQSYEVPRDFLIETEPFTTQNGLLSEVGKLLRPKLKARYGEALEARYDEIAHGQADELRALRDGAGQRPVVETVVRAAVAISGSEGAEVGPEANFADLGGDSLSALSLANLLHDVFEVEVPVRIIIGPTASLAGIAKHIEAERAGASAPTAASVHGAGATRIRASELTLEKFLPEDLLAAAKGLPAADQVRTVLLTGANGWLGRFLALEQLERLARSGQDGGKLICLVRGKDAAAARRRIEETLGTDPALAARFAELAEGRLEVVPGDVGEPKFGLDDAAWDRLAEEVDVIVHPAALVNHVLPYHQLFGPNVVGTAEIIRLAITAKRKPVTYLSTVAVAAGVEPSSFEEDGDIRAVVPERPLGDGYANGYGNSKWAGEVLLREAHELVGLPVAVFRSDMILAHTRYTGQLNVPDQFTRLVLSLLATGIAPKSFYQQGAAGERQRAHYDGIPVDFTAEAITTLGAEPSWFDGGAGFRSFDVFNPHHDGVGLDEFVDWLIEAGHPISRIDDHKEWFARFETAVRGLPEAQRQHSLLPLLRAYSFPHPPVDGSVYPTGKFQGAVKAAQVGSDHDVPHLGKALIVKYADDLKALGLL | accepted pimelate as substrate | – | –
2 | SEQ ID NO: 6: Segniliparus rotundus carboxylate reductase, N-terminal HIS tagged (protein, listed as Segniliparus rotundus, N-terminal His tag, Segniliparus rotundus carboxylate reductase, N-terminal HIS tagged) MTQSHTQGPQASAAHSRLARRAAELLATDPQAAATLPDPEVVRQATRPGLRLAERVDAILSGYADRPALGQRSFQTVKDPITGRSSVELLPTFDTITYRELRERATAIASDLAHHPQAPAKPGDFLASIGFISVDYVAIDIAGVFAGLTAVPLQTGATLATLTAITAETAPTLFAASIEHLPTAVDAVLATPSVRRLLVFDYRAGSDEDREAVEAAKRKIADAGSSVLVDVLDEVIARGKSAPKAPLPPATDAGDDSLSLLIYTSGSTGTPKGAMYPERNVAHFWGGVWAAAFDEDAAPPVPAINITFLPLSHVASRLSLMPTLARGGLMHFVAKSDLSTLFEDLKLARPTNLFLVPRVVEMLYQHYQSELDRRGVQDGTREAEAVKDDLRTGLLGGRILTAGFGSAPLSAELAGFIESLLQIHLVDGYGSTEAGPVWRDGYLVKPPVTDYKLIDVPELGYFSTDSPHPRGELAIKTQTILPGYYKRPETTAEVFDEDGFYLTGDVVAQIGPEQFAYVDRRKNVLKLSQGEFVTLAKLEAAYSSSPLVRQLFVYGSSERSYLLAVIVPTPDALKKFGVGEAAKAALGESLQKIARDEGLQSYEVPRDFIIETDPFTVENGLLSDARKSLRPKLKEHYGERLEAMYKELADGQANELRDIRRGVQQRPTLETVRRAAAAMLGASAAEIKPDAHFTDLGGDSLSALTFSNFLHDLFEVDVPVGVIVSAANTLGSVAEHIDAQLAGGRARPTFATVHGKGSTTIKASDLTLDKFIDEQTLEAAKHLPKPADPPRTVLLTGANGWLGRFLALEWLERLAPAGGKLITIVRGKDAAQAKARLDAAYESGDPKLAGHYQDLAATTLEVLAGDFSEPRLGLDEATWNRLADEVDFISHPGALVNHVLPYNQLFGPNVAGVAEIIKLAITTRIKPVTYLSTVAVAAGVEPSALDEDGDIRTVSAERSVDEGYANGYGNSKWGGEVLLREAHDRTGLPVRVFRSDMILAHQKYTGQVNATDQFTRLVQSLLATGLAPKSFYELDAQGNRQRAHYDGIPVDFTAESITTLGGDGLEGYRSYNVFNPHRDGVGLDEFVDWLIEAGHPITRIDDYDQWLSRFETSLRGLPESKRQASVLPLLHAFARPGPAVDGSPFRNTVFRTDVQKAKIGAEHDIPHLGKALVLKYADDIKQLGLL | accepted pimelate as substrate | accepted N7-acetyl-7-aminoheptanoate as substrate | accepted pimelate semialdehyde as substrate

— US10920254B2, “Methods and materials for producing 5 and 7-carbon monomers” (INVISTA North America S.á.r.l., priority 2015, dated 2021)
